Measurements as given in patent publication US20260209386A1 (MYTHIC THERAPEUTICS, published 2026).

target: T1, Human PTK7 Protein, His Tag (Acro Biosystems) (human, UniProt Q13308 31-704); assay: BLI, antibody on anti-human Fc sensor, 50 nM PTK7 at pH 7.4, dissociation at pH 7.4 or 5.4; 1 = pH dependent binding relative to parent
T1 construct: Bought recombinant protein; also called CCK4; tyrosine-protein kinase-like 7; not shown: His tag
T1 sequence: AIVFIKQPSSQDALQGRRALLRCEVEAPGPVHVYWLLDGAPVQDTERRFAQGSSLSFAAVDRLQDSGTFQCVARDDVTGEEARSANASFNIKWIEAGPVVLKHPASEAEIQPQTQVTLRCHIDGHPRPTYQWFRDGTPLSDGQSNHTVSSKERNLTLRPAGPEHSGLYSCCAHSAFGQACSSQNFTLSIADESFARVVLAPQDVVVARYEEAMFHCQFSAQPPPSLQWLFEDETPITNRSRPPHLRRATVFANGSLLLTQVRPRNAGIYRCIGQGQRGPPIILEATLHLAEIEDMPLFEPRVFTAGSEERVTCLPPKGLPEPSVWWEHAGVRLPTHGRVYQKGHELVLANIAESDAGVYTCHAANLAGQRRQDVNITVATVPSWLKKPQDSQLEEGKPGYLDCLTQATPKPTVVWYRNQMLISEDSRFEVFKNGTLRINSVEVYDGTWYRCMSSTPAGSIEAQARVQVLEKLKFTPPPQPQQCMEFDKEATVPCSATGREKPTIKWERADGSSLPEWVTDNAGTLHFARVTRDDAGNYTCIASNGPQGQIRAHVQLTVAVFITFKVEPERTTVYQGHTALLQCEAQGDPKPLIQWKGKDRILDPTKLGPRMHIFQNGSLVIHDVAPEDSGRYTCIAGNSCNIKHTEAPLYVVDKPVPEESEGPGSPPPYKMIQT

| Binder | binding result |
| --- | --- |
| MYT11410 (antibody, V domains shown, MYT9797 LC variant; captured via anti-human Fc) VH: EVQLVESGGGLVQPGGSLRLSCTASGIDLSNYAVIWVRQAPGKGLEWVGIIYTYDTTYYANWAKGRFTISRDTSKNTVYLQMNSLRAEDTAVYFCARSFSDISDLIKLWGQGTLVTVSS VL: EIVMTQSPSTLSASVGDRVIITCQASQSLYNNKDLAWYQQKPGKAPKLLIYEASKLASGVPSRFSGSGSGAEFTLTISSLQPDDFATYYCLGEFSCGSHDCLAFGQGTKLTVL | binds |
| MYT11417 (antibody, V domains shown, MYT9797 LC alanine variant; captured via anti-human Fc) VH: EVQLVESGGGLVQPGGSLRLSCTASGIDLSNYAVIWVRQAPGKGLEWVGIIYTYDTTYYANWAKGRFTISRDTSKNTVYLQMNSLRAEDTAVYFCARSFSDISDLIKLWGQGTLVTVSS VL: EIVMTQSPSTLSASVGDRVIITCQASQSLYNNKALAWYQQKPGKAPKLLIYEASKLASGVPSRFSGSGSGAEFTLTISSLQPDDFATYYCLGEFSCGSGDCLAFGQGTKLTVL | binds |

target: T2, Recombinant human CCK4/PTK7 Protein (His Tag), Sino Biological 19399-H08H (human, UniProt Q13308 31-704); assay: BLI, antibody on anti-human Fc sensor
T2 construct: bought protein; not shown: His tag
T2 sequence: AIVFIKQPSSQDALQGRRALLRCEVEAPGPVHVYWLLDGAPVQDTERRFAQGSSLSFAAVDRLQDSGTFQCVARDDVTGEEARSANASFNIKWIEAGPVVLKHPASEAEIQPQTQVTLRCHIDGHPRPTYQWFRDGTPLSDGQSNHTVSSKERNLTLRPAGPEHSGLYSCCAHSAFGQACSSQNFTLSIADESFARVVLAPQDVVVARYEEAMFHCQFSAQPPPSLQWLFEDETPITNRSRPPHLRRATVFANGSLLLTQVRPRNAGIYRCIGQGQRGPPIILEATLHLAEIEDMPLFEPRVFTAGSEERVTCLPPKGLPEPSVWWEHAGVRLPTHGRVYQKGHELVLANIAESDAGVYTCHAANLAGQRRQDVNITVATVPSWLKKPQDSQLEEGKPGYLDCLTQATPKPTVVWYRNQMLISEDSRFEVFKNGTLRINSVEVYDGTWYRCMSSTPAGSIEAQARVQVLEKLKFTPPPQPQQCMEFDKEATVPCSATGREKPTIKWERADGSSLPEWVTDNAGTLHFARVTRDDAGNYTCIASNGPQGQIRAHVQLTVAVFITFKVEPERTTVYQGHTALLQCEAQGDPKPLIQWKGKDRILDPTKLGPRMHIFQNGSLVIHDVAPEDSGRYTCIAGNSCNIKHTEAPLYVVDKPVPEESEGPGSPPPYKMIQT

| Binder | binding result |
| --- | --- |
| MYT7858 (antibody, V domains shown, IgG) VH: QVQLVQSGPEVKKPGASVKVSCKASGYTFTDYAVHWVRQAPGKRLEWIGVISTYNDYTYNNQDFKGRVTMTRDTSASTAYMELSRLRSEDTAVYYCARGNSYFYALDYWGQGTSVTVSS VL: EIVLTQSPATLSLSPGERATLSCRAHESVDSYGKSFMAWYQQKPGQAPRLLIYRASNLESGIPARFSGSGSGTDFTLTISSLEPEDFAVYYCQQSNEDPWTFGGGTKLEIK | no binding (tested: 50 nM PTK7) |
| MYT7862 (antibody, V domains shown, IgG) VH: QVQLVQSGPEVKKPGASVKVSCKASGYTFTDYAVHWVRQAPGKRLEWIGVISTYNDYTYNNQDFKGRVTMTRDTSASTAYMELSRLRSEDTAVYYCARGNSYFYALDYWGQGTSVTVSS VL: EIVLTQSPATLSLSPGERATLSCRASESVDHYGKSFMHWYQQKPGQAPRLLIYRASNLEHGIPARFSGSGSGTDFTLTISSLEPEDFAVYYCQQSNEDPWTFGGGTKLEIK | no binding (tested: 50 nM PTK7) |
| MYT7963 (antibody, V domains shown, IgG) VH: EVQLVQSGGGLVHPGGSLRLSCAGSGFTHSTYLMYWVRQAPGKTLEWVSAIGSGGDTYYADSVKGRFTISRDNAKNSLYLQMNSLRAEDMAVYYCARGLGYWGQGTLVTVSS VL: not shown | no binding (tested: 50 nM PTK7) |
| MYT7970 (antibody, V domains shown, IgG) VH: EVQLVQSGGGLVHPGGSLRLSCAGSGFTFSTYLMYWVRQAPGKTLEWVSHIGSGGDTYYADSVKGRFTISRDNAKNSLYLQMNSLRAEDMAVYYCARGLGYWGQGTLVTVSS VL: not shown | no binding (tested: 50 nM PTK7) |
| MYT7972 (antibody, V domains shown, IgG) VH: EVQLVQSGGGLVHPGGSLRLSCAGSGFTFSTYLMYWVRQAPGKTLEWVSAIHSGGDTYYADSVKGRFTISRDNAKNSLYLQMNSLRAEDMAVYYCARGLGYWGQGTLVTVSS VL: not shown | no binding (tested: 50 nM PTK7) |
| MYT7973 (antibody, V domains shown, IgG) VH: EVQLVQSGGGLVHPGGSLRLSCAGSGFTFSTYLMYWVRQAPGKTLEWVSAIGHGGDTYYADSVKGRFTISRDNAKNSLYLQMNSLRAEDMAVYYCARGLGYWGQGTLVTVSS VL: not shown | no binding (tested: 50 nM PTK7) |
| MYT7986 (antibody, V domains shown, IgG) VH: EVQLVQSGGGLVHPGGSLRLSCAGSGFTFSTYLMYWVRQAPGKTLEWVSAIGSGGDTYYADSVKGRFTISRDNAKNSLYLQMNSLRAEDMAVYYCHRGLGYWGQGTLVTVSS VL: not shown | no binding (tested: 50 nM PTK7) |
| MYT7987 (antibody, V domains shown, IgG) VH: EVQLVQSGGGLVHPGGSLRLSCAGSGFTFSTYLMYWVRQAPGKTLEWVSAIGSGGDTYYADSVKGRFTISRDNAKNSLYLQMNSLRAEDMAVYYCAHGLGYWGQGTLVTVSS VL: not shown | no binding (tested: 50 nM PTK7) |
| MYT7988 (antibody, V domains shown, IgG) VH: EVQLVQSGGGLVHPGGSLRLSCAGSGFTFSTYLMYWVRQAPGKTLEWVSAIGSGGDTYYADSVKGRFTISRDNAKNSLYLQMNSLRAEDMAVYYCARHLGYWGQGTLVTVSS VL: not shown | no binding (tested: 50 nM PTK7) |
